Measured values reported in US20180305695.

Molecular target: von Willebrand factor A1 domain (Homo sapiens) (UniProt P04275)
Assay: SPR
Details: 37 C

“TGAGACTCCCCANCTTTCGCCNACANCCGAGGGAGTCTCA [vWF1-DsDsDs]” gave a Kd (n = Ds (7-(2-thienyl)-3H-imidazo[4,5-b]pyridin-3-yl) at 3 positions, phosphate buffer 155 mM NaCl, 0.05% NP-40) of 1030 pM.

“CGAGGCTCCCCANCTTTCGCCNACANCCGAGGGAGCCTCGCGCGTAGCG [vWF1-DsDsDs-mhGC]” gave a Kd (n = Ds at 3 positions, phosphate buffer 155 mM NaCl, 0.05% NP-40, koff 0.00159 1/s, printed as GCmh) of 780 pM.

In the case of “CGCGGCCGANGAGCACCGAAGGTCTCAACGNTGGAGGCCGCGCGCGTAGCG [vWF2-DsDsDs-2mhGC]”, the Kd (n = Ds, likely pM (protein 0.078-5 nM)) is reported as 6.13e+07 pM.

Sequence “CGAGGCTCCCCANCTTTCGCCNACANCCGAGGGAGCCTCG [vWF1-DsDsDs-GC]” has a Kd (n = Ds at 3 positions, phosphate buffer 155 mM NaCl, 0.05% NP-40) of 1080 pM.

“CGTGACCGANGAGCACCTAACNGGTCTCAACGNTGGAGGTCACG [vWF2-DsDsDs]” gave a Kd (n = Ds at 3 positions, likely pM (protein 0.078-5 nM)) of 7.49e+07 pM.
